From publication PMC11827629 come the findings set out here.

For series [1], the target named is T1, thrombin, N-terminally 2PCA-labeled (Cy5, biotin) (UniProt P00734;P00734 328-363;364-622). The series can be described thus: single-molecule FRET (koff/kon); koff 0.7 +/- 0.1 s-1; kon 0.7 +/- 0.1 e8 M-1 s-1; main text gives error 0.8; smFRET: 1x PBS with 2.5 mM PCA, 0.155 U/ul PCD, 1 mM Trolox, 5 nM Cy3-aptamer, 23 +/- 1 C, pH not stated; QCM: PBS, flow 45 +/- 3 ul/min, thrombin 0.06-16.5 nM.

Series [2] concerns the target T1, thrombin, N-terminally 2PCA-labeled …. The series can be described thus: single-molecule FRET (koff/kon); koff 0.1 +/- 0.1 s-1; kon 0.2 +/- 0.1 e8 M-1 s-1; main text gives error 0.7; smFRET: 1x PBS with 2.5 mM PCA, 0.155 U/ul PCD, 1 mM Trolox, 5 nM Cy3-aptamer, 23 +/- 1 C, pH not stated; QCM: PBS, flow 45 +/- 3 ul/min, thrombin 0.06-16.5 nM.
The target of series [3] is T2, human alpha-thrombin (Homo sapiens, UniProt P00734;P00734 328-363;364-622). The series can be described thus: QCM; about twice the sensitivity of RE31; response at 300 pM; release 3.1 +/- 1.05% per 5 min at 16.5 nM; smFRET: 1x PBS with 2.5 mM PCA, 0.155 U/ul PCD, 1 mM Trolox, 5 nM Cy3-aptamer, 23 +/- 1 C, pH not stated; QCM: PBS, flow 45 +/- 3 ul/min, thrombin 0.06-16.5 nM.

The target in series [4] is T1, thrombin, N-terminally 2PCA-labeled …. The series can be described thus: single-molecule FRET (koff/kon); koff 0.3 +/- 0.1 s-1; kon 1.1 +/- 0.1 e8 M-1 s-1; smFRET: 1x PBS with 2.5 mM PCA, 0.155 U/ul PCD, 1 mM Trolox, 5 nM Cy3-aptamer, 23 +/- 1 C, pH not stated; QCM: PBS, flow 45 +/- 3 ul/min, thrombin 0.06-16.5 nM.
Series [5] concerns the target T2, human alpha-thrombin. The series is described as follows: QCM; linear 1.65-16.5 nM; no significant change below; release 6.3 +/- 0.6% per 5 min at 16.5 nM; smFRET: 1x PBS with 2.5 mM PCA, 0.155 U/ul PCD, 1 mM Trolox, 5 nM Cy3-aptamer, 23 +/- 1 C, pH not stated; QCM: PBS, flow 45 +/- 3 ul/min, thrombin 0.06-16.5 nM.

TTTTTTTGGTTGGTGTGGTTGG (structured_DNA) [HD1 single molecule exp.] had a Kd in series [1] of 9.2 nM. In series [2], TTTTTTTCGCCTAGGTTGGGTAGGGTGGTGGCG (structured_DNA) [NU172 single molecule exp.] came in with a dissociation constant Kd of 3.3 nM.

With TTTTTTTCGCCTAGGTTGGGTAGGGTGGTGGCG (structured_DNA, 5' amino C6) [NU172 QCM exp.], in the series with human alpha-thrombin [3], the binding result is listed as “binds”. With TTTTTTTGTGACGTAGGTTGGTGTGGTTGGGGCGTCAC (structured_DNA) [RE31 single molecule exp.], in series [4], the Kd amounted to 2.9 nM. Take TTTTTTTGTGACGTAGGTTGGTGTGGTTGGGGCGTCAC (structured_DNA, 5' amino C6) [RE31 QCM exp.]: the binding result with human alpha-thrombin [5] is “binds”.

By Kd is commonly meant the concentration at which binding is half-saturated.
